Measurements published in patent publication US20210388087A1 (Chugai, published 2021).
Substitutions are numbered along the chain they refer to. Names and notes keep the numbering of the source.

T1: Human CD3eg linker (human)
T1 construct: Single chain: epsilon and gamma subunits of human CD3 joined by a 29-mer linker, Flag-tag at the C-terminus; also called recombinant human CD3
T1 chain: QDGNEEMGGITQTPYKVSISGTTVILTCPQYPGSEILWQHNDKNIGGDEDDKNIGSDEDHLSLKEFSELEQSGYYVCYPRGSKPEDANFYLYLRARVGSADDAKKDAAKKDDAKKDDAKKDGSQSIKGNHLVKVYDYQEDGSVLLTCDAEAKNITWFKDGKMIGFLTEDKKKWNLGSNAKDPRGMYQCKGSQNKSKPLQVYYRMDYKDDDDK

B1: H183/L072 VH F27S (antibody, name in Kabat numbering, V domains shown)
VH: QVQLVESGGGLVQPGRSLRLSCAASGSTFSNAWMHWVRQAPGKGLEWVAQIKDKGNAYAAYYAPSVKGRFTISRDDSKNSIYLQMNSLKTEDTAVYYCHYVHYASASTVLPAFGVDAWGQGTTVTVSS
VL: DIVMTQSPLSLPVTPGEPASISCQASQELVHMNRNTYLHWYQQKPGQAPRLLIYKVSNRFPGVPDRFSGSGSGTDFTLKISRVEAEDVGVYYCAQGTSVPFTFGQGTKLEIK
B2: H183/L072 VH F27T (antibody, name in Kabat numbering, V domains shown)
VH: B1 VH with S27T
VL: B1 VL
B3: H183/L072 VH F27V (antibody, name in Kabat numbering, V domains shown)
VH: B1 VH with S27V
VL: B1 VL
B4: H183/L072 VH F27W (antibody, name in Kabat numbering, V domains shown)
VH: B1 VH with S27W
VL: B1 VL
B5: H183/L072 VH F27Y (antibody, name in Kabat numbering, V domains shown)
VH: B1 VH with S27Y
VL: B1 VL
B6: H183/L072 VH F29A (antibody, name in Kabat numbering, V domains shown)
VH: B1 VH with S27F, F29A
VL: B1 VL
B7: H183/L072 VH F29D (antibody, name in Kabat numbering, V domains shown)
VH: B1 VH with S27F, F29D
VL: B1 VL
B8: H183/L072 VH F29E (antibody, name in Kabat numbering, V domains shown)
VH: B1 VH with S27F, F29E
VL: B1 VL
B9: H183/L072 VH F29G (antibody, name in Kabat numbering, V domains shown)
VH: B1 VH with S27F, F29G
VL: B1 VL
B10: H183/L072 VH F29H (antibody, name in Kabat numbering, V domains shown)
VH: B1 VH with S27F, F29H
VL: B1 VL
B11: H183/L072 VH F29I (antibody, name in Kabat numbering, V domains shown)
VH: B1 VH with S27F, F29I
VL: B1 VL
B12: H183/L072 VH F29K (antibody, name in Kabat numbering, V domains shown)
VH: B1 VH with S27F, F29K
VL: B1 VL
B13: H183/L072 VH F29L (antibody, name in Kabat numbering, V domains shown)
VH: B1 VH with S27F, F29L
VL: B1 VL
B14: H183/L072 VH F29M (antibody, name in Kabat numbering, V domains shown)
VH: B1 VH with S27F, F29M
VL: B1 VL
B15: H183/L072 VH F29N (antibody, name in Kabat numbering, V domains shown)
VH: B1 VH with S27F, F29N
VL: B1 VL
B16: H183/L072 VH F29P (antibody, name in Kabat numbering, V domains shown)
VH: B1 VH with S27F, F29P
VL: B1 VL
B17: H183/L072 VH F29Q (antibody, name in Kabat numbering, V domains shown)
VH: B1 VH with S27F, F29Q
VL: B1 VL
B18: H183/L072 VH F29R (antibody, name in Kabat numbering, V domains shown)
VH: B1 VH with S27F, F29R
VL: B1 VL

Target: T1, Human CD3eg linker
Assay: Biacore SPR, vs template H183/L072

B1 and B2 are the same in “fold change of affinity” value: 0 fold for the first, 0 fold for the second.

Compared with B3, B4 is lower in “fold change of affinity” value: 0.3 fold for the first, 0 fold for the second.

First: B5
Second: B6
The “fold change of affinity” value of the first is lower: 0 fold for the first, 0.2 fold for the second.

First: B7
Second: B8
The “fold change of affinity” value of the first is lower: 0 fold for the first, 0.1 fold for the second.

B9 and B10 are the same in “fold change of affinity” value: 0 fold for the first, 0 fold for the second.

Going from B11 to B12, the “fold change of affinity” value falls from 0.3 fold to 0.1 fold.

B13 and B14 are the same in “fold change of affinity” value: 0.4 fold for the first, 0.4 fold for the second.

First: B15
Second: B16
The “fold change of affinity” value of the first is lower: 0 fold for the first, 0.2 fold for the second.

First: B17
Second: B18
The “fold change of affinity” value of the first is higher: 0.2 fold for the first, 0 fold for the second.
